Results published in the supplement of paper PMC10065799, “High-throughput profiling of sequence recognition by tyrosine kinases and SH2 domains using bacterial peptide display” (eLife, 2023).

Legend:
FGFR3 = FGFR3 (UniProt P22607); assay: phosphorylation enrichment, bacterial display (enrichment ratio); higher = better substrate or ligand; peptides without Tyr show the background
Jak2 = Jak2 (UniProt O60674); assay: as above
Hck = Hck (UniProt P08631); assay: as above
EPHB1 = EPHB1 (UniProt P54762); assay: as above
MERTK = MERTK (UniProt Q12866); assay: as above
Sequence of MERTK (Q12866 whole entry, looked up): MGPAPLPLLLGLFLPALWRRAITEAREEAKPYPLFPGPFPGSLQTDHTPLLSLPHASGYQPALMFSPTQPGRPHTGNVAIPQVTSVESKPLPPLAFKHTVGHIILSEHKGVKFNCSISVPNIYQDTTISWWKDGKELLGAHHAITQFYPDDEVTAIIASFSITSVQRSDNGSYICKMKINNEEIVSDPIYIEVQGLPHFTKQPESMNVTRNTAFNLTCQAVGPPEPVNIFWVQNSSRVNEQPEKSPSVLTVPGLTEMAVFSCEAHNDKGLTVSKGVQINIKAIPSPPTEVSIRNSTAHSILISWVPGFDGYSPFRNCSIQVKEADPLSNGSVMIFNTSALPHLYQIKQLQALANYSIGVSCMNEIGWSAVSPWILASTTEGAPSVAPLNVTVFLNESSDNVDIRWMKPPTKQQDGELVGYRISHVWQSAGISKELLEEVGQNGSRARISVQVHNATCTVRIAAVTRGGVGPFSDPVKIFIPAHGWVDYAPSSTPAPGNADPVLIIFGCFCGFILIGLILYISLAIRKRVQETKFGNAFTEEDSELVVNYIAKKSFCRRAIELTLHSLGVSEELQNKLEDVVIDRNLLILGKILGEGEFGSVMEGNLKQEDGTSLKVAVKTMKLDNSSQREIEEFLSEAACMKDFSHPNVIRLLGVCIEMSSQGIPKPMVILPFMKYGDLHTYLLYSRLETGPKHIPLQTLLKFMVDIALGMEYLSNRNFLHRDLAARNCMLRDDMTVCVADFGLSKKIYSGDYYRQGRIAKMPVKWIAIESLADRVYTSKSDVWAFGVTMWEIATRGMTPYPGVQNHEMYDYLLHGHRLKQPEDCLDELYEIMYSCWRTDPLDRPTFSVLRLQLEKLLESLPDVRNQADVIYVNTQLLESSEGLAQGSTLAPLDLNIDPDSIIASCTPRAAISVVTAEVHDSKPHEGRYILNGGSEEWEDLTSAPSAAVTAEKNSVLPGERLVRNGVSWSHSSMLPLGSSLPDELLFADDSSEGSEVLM

Fes = Fes (UniProt P07332); assay: as above
Sequence of Fes (P07332 whole entry, looked up): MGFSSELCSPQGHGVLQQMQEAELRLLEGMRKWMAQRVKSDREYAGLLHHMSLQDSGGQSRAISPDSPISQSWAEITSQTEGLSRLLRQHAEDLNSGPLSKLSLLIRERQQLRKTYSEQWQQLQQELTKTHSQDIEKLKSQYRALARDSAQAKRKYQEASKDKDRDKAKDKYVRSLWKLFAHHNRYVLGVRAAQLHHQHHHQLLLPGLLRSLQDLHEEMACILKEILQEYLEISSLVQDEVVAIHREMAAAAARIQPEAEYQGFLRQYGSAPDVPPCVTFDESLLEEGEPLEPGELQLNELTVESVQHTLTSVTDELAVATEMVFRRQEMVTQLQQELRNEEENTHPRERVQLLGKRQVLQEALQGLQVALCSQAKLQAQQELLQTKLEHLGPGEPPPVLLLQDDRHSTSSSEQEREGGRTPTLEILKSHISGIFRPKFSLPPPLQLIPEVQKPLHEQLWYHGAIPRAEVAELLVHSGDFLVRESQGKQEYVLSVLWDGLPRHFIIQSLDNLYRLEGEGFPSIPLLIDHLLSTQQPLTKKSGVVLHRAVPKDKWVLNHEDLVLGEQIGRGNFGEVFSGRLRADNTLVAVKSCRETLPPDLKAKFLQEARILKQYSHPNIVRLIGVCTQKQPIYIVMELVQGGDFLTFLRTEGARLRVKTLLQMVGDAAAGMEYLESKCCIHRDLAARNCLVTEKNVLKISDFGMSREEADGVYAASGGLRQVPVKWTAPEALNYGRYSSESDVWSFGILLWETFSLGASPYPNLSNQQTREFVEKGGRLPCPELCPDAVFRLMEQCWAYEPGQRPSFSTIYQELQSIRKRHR

c-Src = assay: as above
AncSZ = assay: as above
Fyn = Fyn (UniProt P06241); assay: as above
FGFR1 = FGFR1 (UniProt P11362); assay: as above
Sequence of FGFR1 (P11362 whole entry, looked up): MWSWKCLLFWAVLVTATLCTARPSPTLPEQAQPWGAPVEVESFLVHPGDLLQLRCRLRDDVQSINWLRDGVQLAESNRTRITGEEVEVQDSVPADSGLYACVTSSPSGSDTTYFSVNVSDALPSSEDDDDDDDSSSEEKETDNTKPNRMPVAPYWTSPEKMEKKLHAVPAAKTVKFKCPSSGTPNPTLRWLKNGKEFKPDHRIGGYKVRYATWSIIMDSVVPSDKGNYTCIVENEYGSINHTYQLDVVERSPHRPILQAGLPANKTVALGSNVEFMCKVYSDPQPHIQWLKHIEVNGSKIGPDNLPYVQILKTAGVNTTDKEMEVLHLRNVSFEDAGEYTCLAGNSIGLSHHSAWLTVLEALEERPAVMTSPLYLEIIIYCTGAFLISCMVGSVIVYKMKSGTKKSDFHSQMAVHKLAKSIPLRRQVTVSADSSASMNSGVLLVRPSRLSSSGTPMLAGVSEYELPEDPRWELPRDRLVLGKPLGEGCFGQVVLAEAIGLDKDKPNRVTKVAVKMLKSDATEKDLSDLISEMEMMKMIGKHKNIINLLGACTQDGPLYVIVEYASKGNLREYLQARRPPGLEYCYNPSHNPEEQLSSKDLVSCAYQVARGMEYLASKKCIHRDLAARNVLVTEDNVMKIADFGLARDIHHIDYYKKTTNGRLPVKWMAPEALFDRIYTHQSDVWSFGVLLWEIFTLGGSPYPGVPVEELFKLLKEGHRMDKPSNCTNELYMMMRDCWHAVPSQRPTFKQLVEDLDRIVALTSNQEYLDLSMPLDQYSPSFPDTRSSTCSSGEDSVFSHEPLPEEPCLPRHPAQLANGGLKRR

EPHB2 = EPHB2 (UniProt P29323); assay: as above
Sequence of EPHB2 (P29323 whole entry, looked up): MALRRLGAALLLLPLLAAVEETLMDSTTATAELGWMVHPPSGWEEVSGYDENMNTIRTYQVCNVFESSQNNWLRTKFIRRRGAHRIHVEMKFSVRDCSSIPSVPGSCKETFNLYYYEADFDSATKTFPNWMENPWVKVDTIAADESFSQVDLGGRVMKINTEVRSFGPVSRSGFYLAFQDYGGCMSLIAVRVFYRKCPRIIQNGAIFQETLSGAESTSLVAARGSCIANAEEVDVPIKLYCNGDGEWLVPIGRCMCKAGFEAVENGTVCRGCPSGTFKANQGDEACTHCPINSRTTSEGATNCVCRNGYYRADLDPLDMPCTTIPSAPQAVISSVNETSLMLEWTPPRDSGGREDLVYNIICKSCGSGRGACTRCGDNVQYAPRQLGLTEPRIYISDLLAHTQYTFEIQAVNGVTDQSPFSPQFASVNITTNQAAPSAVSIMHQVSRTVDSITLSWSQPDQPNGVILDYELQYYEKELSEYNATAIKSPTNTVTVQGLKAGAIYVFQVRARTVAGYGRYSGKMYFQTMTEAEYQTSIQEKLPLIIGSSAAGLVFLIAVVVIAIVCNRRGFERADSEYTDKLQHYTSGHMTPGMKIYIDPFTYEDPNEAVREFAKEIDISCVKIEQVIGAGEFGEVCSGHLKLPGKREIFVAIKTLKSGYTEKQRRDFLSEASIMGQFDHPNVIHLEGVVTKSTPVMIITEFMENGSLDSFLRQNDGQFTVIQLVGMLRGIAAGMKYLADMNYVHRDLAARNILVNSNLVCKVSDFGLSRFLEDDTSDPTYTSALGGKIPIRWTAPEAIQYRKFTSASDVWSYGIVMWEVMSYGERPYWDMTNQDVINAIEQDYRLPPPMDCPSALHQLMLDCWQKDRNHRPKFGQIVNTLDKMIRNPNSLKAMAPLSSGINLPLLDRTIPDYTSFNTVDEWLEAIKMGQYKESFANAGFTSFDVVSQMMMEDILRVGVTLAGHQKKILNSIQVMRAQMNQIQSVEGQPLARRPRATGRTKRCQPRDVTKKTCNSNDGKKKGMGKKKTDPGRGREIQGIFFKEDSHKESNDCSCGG

c-Abl (mouse) = assay: as above
Fer (mouse) = assay: as above
SHP2-C SH2 = assay: SH2 binding enrichment of the phosphorylated peptide, bacterial display (enrichment ratio); higher = better substrate or ligand; peptides without Tyr show the background
c-Src SH2 = assay: as above
Grb2 SH2 = Grb2 SH2 (UniProt P62993); assay: as above
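Throughout, for SH2 binding enrichment of the phosphorylated peptide, bacterial display: peptide library displayed on the E. coli surface as eCPX fusions, selected cells deep-sequenced, score is each peptide's frequency after selection divided by its frequency in the input.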
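Throughout, for phosphorylation enrichment, bacterial display: 11-residue human phosphosite peptides and single-mutation variants displayed on the E. coli surface, counted by deep sequencing, each peptide's frequency after selection divided by its frequency in the unselected input library; frequency after pTyr selection over input frequency; kinase dosed for 20-30% of maximal phosphorylation in three min.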

Sequence of Hck (P08631 whole entry, looked up): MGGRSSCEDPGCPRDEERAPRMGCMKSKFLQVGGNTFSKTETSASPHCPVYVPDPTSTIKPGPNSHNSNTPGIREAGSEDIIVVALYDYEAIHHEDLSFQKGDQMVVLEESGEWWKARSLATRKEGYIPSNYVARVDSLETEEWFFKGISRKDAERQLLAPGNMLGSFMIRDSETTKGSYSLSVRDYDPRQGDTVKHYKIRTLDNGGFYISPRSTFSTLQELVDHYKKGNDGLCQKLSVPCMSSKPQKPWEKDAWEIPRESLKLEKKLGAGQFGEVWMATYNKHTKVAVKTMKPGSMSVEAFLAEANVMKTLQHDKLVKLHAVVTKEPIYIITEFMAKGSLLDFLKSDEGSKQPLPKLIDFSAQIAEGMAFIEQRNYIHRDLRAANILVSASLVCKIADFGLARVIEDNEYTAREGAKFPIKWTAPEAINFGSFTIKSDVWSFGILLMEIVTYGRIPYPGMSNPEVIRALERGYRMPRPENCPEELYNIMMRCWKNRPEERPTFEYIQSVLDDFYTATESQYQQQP
Sequence of FGFR3 (P22607 whole entry, looked up): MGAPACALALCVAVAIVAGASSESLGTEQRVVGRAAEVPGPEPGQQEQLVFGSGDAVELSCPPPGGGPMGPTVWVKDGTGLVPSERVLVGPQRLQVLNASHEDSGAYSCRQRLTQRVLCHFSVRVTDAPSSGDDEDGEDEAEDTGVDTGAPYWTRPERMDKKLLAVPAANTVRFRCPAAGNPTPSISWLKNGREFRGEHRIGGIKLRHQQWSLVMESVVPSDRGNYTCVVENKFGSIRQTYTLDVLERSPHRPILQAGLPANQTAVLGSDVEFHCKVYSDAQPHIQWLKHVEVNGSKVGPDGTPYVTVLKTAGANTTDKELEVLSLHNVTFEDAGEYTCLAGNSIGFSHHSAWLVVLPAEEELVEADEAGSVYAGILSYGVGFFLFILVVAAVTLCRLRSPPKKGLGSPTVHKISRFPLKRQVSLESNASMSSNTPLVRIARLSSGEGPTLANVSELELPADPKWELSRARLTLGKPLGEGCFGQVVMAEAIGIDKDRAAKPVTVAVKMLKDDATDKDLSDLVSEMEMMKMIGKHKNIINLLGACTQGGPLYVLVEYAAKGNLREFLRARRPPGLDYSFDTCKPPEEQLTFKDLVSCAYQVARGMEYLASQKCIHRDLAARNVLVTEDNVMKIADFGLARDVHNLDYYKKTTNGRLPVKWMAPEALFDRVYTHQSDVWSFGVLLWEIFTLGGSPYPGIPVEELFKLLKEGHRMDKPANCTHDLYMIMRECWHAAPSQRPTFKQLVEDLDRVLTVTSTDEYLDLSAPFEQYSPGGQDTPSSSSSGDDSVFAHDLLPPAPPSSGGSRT

| Sequence | SH2 binding enrichment (SHP2-C SH2) | SH2 binding enrichment (c-Src SH2) | SH2 binding enrichment (Grb2 SH2) | phosphorylation enrichment (FGFR3) | phosphorylation enrichment (Jak2) | phosphorylation enrichment (Hck) | phosphorylation enrichment (EPHB1) | phosphorylation enrichment (MERTK) | phosphorylation enrichment (Fes) | phosphorylation enrichment (c-Src) | phosphorylation enrichment (AncSZ) | phosphorylation enrichment (Fyn) | phosphorylation enrichment (FGFR1) | phosphorylation enrichment (EPHB2) | phosphorylation enrichment (c-Abl (mouse)) | phosphorylation enrichment (Fer (mouse)) |
| --- | --- | --- | --- | --- | --- | --- | --- | --- | --- | --- | --- | --- | --- | --- | --- | --- |
| GGDVIYKGFED [NFU1_Y194] | 0.625 | 0.427 | 0.822 | 0.629 | 0.924 | 0.951 | 0.425 | 0.466 | 0.887 | 2.75 | 0.871 | 3.25 | 0.499 | 0.491 | 0.663 | 0.395 |
| DQVEQYKKELE [LMNA_Y259] | 0.66 | 0.841 | 0.956 | 0.688 | 0.956 | 0.509 | 0.67 | 0.527 | 1.2 | 0.603 | 1.32 | 0.516 | 0.561 | 0.644 | 0.878 | 0.534 |
| SVTCTYSPAVN [TP53_Y126_L130V] | 0.661 | 0.369 | 0.588 | 0.945 | 1.49 | 0.654 | 0.77 | 0.508 | 1.71 | 0.662 | 1.58 | 0.58 | 0.697 | 0.746 | 1.18 | 0.646 |
| GSRGKYFSGFR [ATM_Y332_S333F] | 0.833 | 0.544 | 0.963 | 0.412 | 0.885 | 0.351 | 0.425 | 0.481 | 0.736 | 0.616 | 0.547 | 0.386 | 0.415 | 0.399 | 0.657 | 0.325 |
| QDTSRYTVSNL [BIRC3_Y245] | 0.54 | 0.453 | 0.879 | 0.71 | 0.644 | 0.467 | 0.675 | 0.567 | 0.824 | 0.617 | 0.971 | 0.523 | 0.516 | 0.467 | 0.804 | 0.501 |
| FKEQGYHRLPS [RIN1_Y681_P686S_YF] | 0.762 | 1.24 | 1.01 | 0.583 | 2.09 | 0.63 | 1.26 | 1.05 | 1.49 | 0.818 | 1.23 | 0.305 | 2.57 | 0.603 | 1.3 | 0.822 |
| PLYGEYFTLQI [TP53_Y327_D324Y] | 0.809 | 0.444 | 0.816 | 14.9 | 15.3 | 11.6 | 15.8 | 9.96 | 2.44 | 12.6 | 4.94 | 16.3 | 17.6 | 18.6 | 9.14 | 3.72 |
| RFLRGYHQDAY [HLA-A_Y137_R138H] | 0.497 | 0.632 | 0.857 | 0.895 | 1.28 | 0.538 | 0.84 | 0.795 | 0.772 | 0.935 | 0.963 | 0.762 | 0.572 | 1.03 | 0.984 | 0.923 |
| RLLRGYDQLAF [HLA-C_Y137_S140L_YF] | 0.968 | 4.73 | 1.16 | 0.639 | 1.08 | 0.554 | 0.464 | 0.495 | 0.838 | 0.62 | 0.898 | 0.435 | 0.415 | 0.479 | 0.926 | 0.498 |
| FFTEEYVRAHP [DOCK2_Y1555_D1558A] | 0.619 | 0.431 | 0.728 | 0.944 | 1.07 | 0.599 | 0.66 | 0.397 | 1.32 | 0.485 | 1.54 | 0.697 | 0.556 | 0.664 | 1.01 | 0.553 |
| RHPREYQDLLN [DES_Y388_L385P] | 0.906 | 1.29 | 1.06 | 0.572 | 0.785 | 0.463 | 0.537 | 0.41 | 0.545 | 0.464 | 0.668 | 0.698 | 0.377 | 0.569 | 0.487 | 0.327 |
| TGDFGYRAPGF [TNS2_Y668_YF] | 0.726 | 0.463 | 0.965 | 0.601 | 0.724 | 0.409 | 0.501 | 0.542 | 0.784 | 0.593 | 0.724 | 0.6 | 0.542 | 0.414 | 1.02 | 0.44 |
| RLRKYHLGKYL [KLB_Y906_Y906H] | 0.594 | 0.395 | 0.476 | 0.464 | 0.483 | 0.253 | 0.439 | 0.503 | 0.498 | 0.387 | 0.726 | 0.318 | 0.29 | 0.399 | 0.61 | 0.426 |

Now from value to sequence, other results behind:

| SH2 binding enrichment (SHP2-C SH2) | SH2 binding enrichment (c-Src SH2) | SH2 binding enrichment (Grb2 SH2) | Sequence | phosphorylation enrichment (FGFR3) | phosphorylation enrichment (Jak2) | phosphorylation enrichment (Hck) | phosphorylation enrichment (EPHB1) | phosphorylation enrichment (MERTK) | phosphorylation enrichment (Fes) | phosphorylation enrichment (c-Src) | phosphorylation enrichment (AncSZ) | phosphorylation enrichment (Fyn) | phosphorylation enrichment (FGFR1) | phosphorylation enrichment (EPHB2) | phosphorylation enrichment (c-Abl (mouse)) | phosphorylation enrichment (Fer (mouse)) |
| --- | --- | --- | --- | --- | --- | --- | --- | --- | --- | --- | --- | --- | --- | --- | --- | --- |
| 0.711 | 0.377 | 0.856 | QEGPEYWDRNT [HLA-B_Y83] | 0.913 | 0.806 | 0.685 | 0.9 | 0.49 | 1.29 | 0.485 | 1.36 | 0.763 | 1.03 | 0.741 | 0.757 | 0.557 |
| 0.946 | 0.936 | 1.01 | PKKKQYTSIHH [APP_Y728_L723P] | 0.928 | 0.85 | 0.755 | 0.441 | 0.656 | 0.849 | 0.457 | 0.646 | 0.757 | 0.71 | 0.646 | 0.617 | 0.595 |
| 0.575 | 0.639 | 1.12 | FADIAYNYRDG [PAH_Y166_H170D] | 0.622 | 1.04 | 0.352 | 0.404 | 0.363 | 0.836 | 0.418 | 0.942 | 0.371 | 0.397 | 0.501 | 0.545 | 0.376 |
| 0.856 | 1.08 | 0.984 | VVEDGYEFFAK [PPP1CB_Y254] | 0.615 | 1.01 | 0.491 | 0.473 | 0.392 | 0.988 | 0.504 | 1.41 | 0.571 | 0.518 | 0.792 | 0.574 | 0.42 |
| 0.753 | 0.492 | 0.87 | TGNGYYFRVFS [MYBPC3_Y1136_I1131T] | 0.766 | 1.41 | 0.436 | 0.707 | 0.353 | 1.3 | 0.332 | 1.04 | 0.334 | 0.542 | 0.657 | 0.818 | 0.594 |
| 0.537 | 0.51 | 0.861 | CCNHPYRINGA [CHD7_Y1256_L1257R] | 0.564 | 0.396 | 0.464 | 0.38 | 0.404 | 0.621 | 0.64 | 0.505 | 0.542 | 0.575 | 0.46 | 0.434 | 0.454 |
| 0.758 | 0.481 | 0.938 | DAGTDYVGISR [FREM2_Y2061] | 0.621 | 0.496 | 0.545 | 0.445 | 0.414 | 0.64 | 0.459 | 0.606 | 0.482 | 0.541 | 0.492 | 0.54 | 0.459 |
| 0.777 | 0.636 | 1.16 | QWQQLYDTLNA [EIF3M_Y351] | 0.932 | 1.06 | 8.42 | 2.15 | 6.06 | 1.29 | 3.99 | 1.63 | 5.55 | 0.556 | 1.63 | 0.546 | 4.62 |
| 0.576 | 0.517 | 0.76 | CVVVPYEPPEV [TP53_Y220_S215C] | 1.03 | 1.38 | 0.599 | 0.864 | 0.462 | 1.54 | 0.557 | 1.65 | 0.568 | 0.574 | 0.641 | 1.01 | 0.854 |
| 0.953 | 1.08 | 1.16 | RPYSPYIIRGM [LRP5_Y1531_R1529S] | 0.509 | 0.508 | 0.642 | 0.59 | 0.438 | 0.816 | 1.07 | 0.886 | 0.848 | 0.399 | 0.575 | 0.681 | 1.75 |
| 0.747 | 0.388 | 0.721 | SVTCTYFPALN [TP53_Y126_S127F] | 1.01 | 1.64 | 0.554 | 0.83 | 0.608 | 1.82 | 0.452 | 1.68 | 0.487 | 0.632 | 0.669 | 1.13 | 0.637 |
| 0.602 | 0.572 | 0.768 | YIPFRYPKEFQ [IDS_Y234_H229Y] | 0.658 | 0.477 | 0.831 | 0.464 | 0.554 | 0.656 | 0.768 | 0.777 | 0.644 | 0.748 | 0.485 | 0.464 | 0.425 |
| 0.842 | 0.911 | 1.48 | QRHFVYFFSFL [PTEN_Y176_R173H_YF] | 1.46 | 1.46 | 1.09 | 0.983 | 0.717 | 1.88 | 0.664 | 1.91 | 1.07 | 1.69 | 0.761 | 1.31 | 1.11 |
| 0.908 | 1.61 | 1.11 | PFQGAYLKINK [MYO1B_Y967_E969K] | 0.909 | 1.18 | 0.643 | 0.539 | 0.461 | 1.52 | 0.319 | 1.1 | 0.582 | 0.417 | 0.571 | 0.88 | 0.853 |
| 1.04 | 0.509 | 0.862 | FETVKYFNNER [ABCB7_Y345_YF] | 0.606 | 0.702 | 0.381 | 0.564 | 0.288 | 0.898 | 0.345 | 0.828 | 0.39 | 0.417 | 0.445 | 0.567 | 0.465 |
| 0.683 | 0.479 | 0.738 | HNLNYYKKTTN [FGFR3_Y648_D646N] | 0.531 | 0.648 | 0.258 | 0.337 | 0.479 | 0.507 | 0.429 | 0.791 | 0.491 | 0.468 | 0.361 | 0.554 | 0.461 |
